Results: the supplement of paper PMC10899765

Legend:
Conditions in all cases: 20 nM; 72 h
MCF10A [1] = experiment: percent viability (nuclei count relative to siNT); higher = more viable cells
Experimental: (§1)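 After 72 h, cells were fixed and stained with Hoechst and anti-fibrillarin, and nucleoli per nucleus were counted with CellProfiler. Values are plate-adjusted percent effect for the one-nucleolus and 5+ nucleoli phenotypes, normalised to siNT (0%) and to the positive controls siNOL11 or siKIF11 (100%), as the mean of biological triplicates. Percent viability is the nuclei count relative to siNT.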

MCF10A [2] = experiment: 5+ nucleoli phenotype percent effect (relative to siNT 0% and siKIF11 100%); higher = more cells with five or more nucleoli
Experimental: as §1

MCF10A [3] = experiment: one-nucleolus phenotype percent effect (relative to siNT 0% and siNOL11 100%); higher = more cells with one nucleolus (ribosome biogenesis inhibition)
Experimental: as §1

Sequence | percent viability (MCF10A [1]) | 5+ nucleoli phenotype percent effect (MCF10A [2]) | one-nucleolus phenotype percent effect (MCF10A [3])
UCUUACUCCCUCAGGCACUG [hsa-miR-550b-3p] | 31% | -5.7% | 1.54%
UCUUCAACCUCAGGACUUGCA [hsa-miR-676-5p] | 56% | 37.9% | -20.5%
UCUUCACCUGCCUCUGCCUGCA [hsa-miR-6754-3p] | 71.5% | 15.2% | -24.7%
UCUUCUCUGUUUUGGCCAUGUG [hsa-miR-942] | 73.4% | 12.1% | -0.685%
UCUUCUUCCUUUGCAGAGUUGA [hsa-miR-4778-3p] | 77.1% | 1.95% | -1.98%
UCUUGAAGUCAGAACCCGCAA [hsa-miR-4635] | 45.8% | -29.8% | 19.8%
UCUUGGAGUAGGUCAUUGGGUGG [hsa-miR-432-5p] | 34.1% | -33.5% | 28.2%
UCUUGUGUUCUCUAGAUCAGU [hsa-miR-581] | 82.2% | 2.53% | -3.72%
UCUUUGGUUAUCUAGCUGUAUGA [hsa-miR-9-5p] | 54.9% | -15.1% | 20.5%
UCUUUUCUUUGAGACUCACU [hsa-miR-627-3p] | 34.1% | 21.8% | -15.6%
UGAAACAUACACGGGAAACCUC [hsa-miR-494] | 24.5% | -37.3% | 34.9%
UGAAACUGGAGCGCCUGGAGGA [hsa-miR-4738-3p] | 28.6% | -20.8% | 26.9%
UGAAGCCAGCUCUGGUCUGGGC [hsa-miR-4786-3p] | 29% | -24% | 25%
UGAAGCGCCUGUGCUCUGCCGAGA [hsa-miR-7706] | 40.2% | 12.3% | -18.1%
UGAAGCUCUAAGGUUCCGCCUGC [hsa-miR-3928-5p] | 23.8% | -19.2% | 20.8%
UGAAGCUCUGACAUUCCUGCAG [hsa-miR-6806-3p] | 26.6% | -18.7% | 15.3%
UGAAGUACCAGCUACUCGAGAG [hsa-miR-5585-5p] | 36.7% | -8.83% | -3.33%
UGAAGUUACAUCAUGGUCGCUU [hsa-miR-4670-3p] | 36.1% | -11.4% | 2.16%
UGACAACUAUGGAUGAGCUCU [hsa-miR-549a] | 77.8% | 15.5% | -18.5%
UGACACGGAGGGUGGCUUGGGAA [hsa-miR-4462] | 82.7% | 14.9% | -18.7%
UGACAGCGCCCUGCCUGGCUC [hsa-miR-2277-3p] | 79% | -19.4% | 2.24%
UGACCCACCCCUCUCCACCAG [hsa-miR-7114-3p] | 35.3% | -4.79% | 6.96%
UGACCCCCAUGUCGCCUCUGUAG [hsa-miR-6859-3p] | 45% | -21.2% | 2.24%
UGACCCCUUCUGUCUCCCUAG [hsa-miR-6846-3p] | 47.5% | 10.3% | -13.6%
UGACCGAUUUCUCCUGGUGUUC [hsa-miR-29c-5p] | 105% | -8.5% | 21.1%
UGACCUCUCCGCUCCGCACAG [hsa-miR-6821-3p] | 38.9% | -22.7% | 7.28%
UGACCUGGGACUCGGACAGCUG [hsa-miR-3661] | 31.7% | -25.2% | 35.2%
UGACCUUUGCCUCUCCCCUCAG [hsa-miR-6759-3p] | 20.7% | -31.2% | 51.3%
UGACGCCCCUUCUGAUUCUGCCU [hsa-miR-6786-3p] | 50.9% | -4.1% | 0.306%
